From patent publication US20250122303A1, “TREATMENT AND PREVENTION OF CANCER USING HER3 ANTIGEN-BINDING MOLECULES” (Hummingbird Bioscience Pte. Ltd., priority 2021, published 2025)
pKd: −log10 of the molar value. Values belong to the substance of their own block, whether it stands above or below them.

Columns and labels:
[1] = target: human HER3 expressed on cells (HEK293 HER3 O/E cells) (human) (UniProt P21860); experiment: flow cytometry, HEK293 cells overexpressing human HER3, 20 ug/ml antibody, FITC anti-Fc secondary; same antibody on WT HEK293: 0.07
[2] = target: human HER3 expressed on cells (HEK293 HER3 O/E cells) (human) (UniProt P21860); experiment: flow cytometry, HEK293 cells overexpressing human HER3, 20 ug/ml antibody, FITC anti-Fc secondary; same antibody on WT HEK293: 1.68
FcRn (human) = FcRn (human) (UniProt P55899); experiment: Bio-Layer Interferometry (determined as described in Example 7)
FcgRIIIA (F158) (human) = FcgRIIIA (F158) (human) (UniProt P08637); experiment: as above
[3] = target: His-tagged FcγRIIIa (V158) (human) (UniProt P08637); experiment: as above
moFcRn (mouse) = moFcRn (mouse) (UniProt Q61559); experiment: as above
moFcgRIV = experiment: as above
[4] = target: human HER3 expressed on cells (HEK293 HER3 O/E cells) (human) (UniProt P21860); experiment: flow cytometry on HEK293T HER3 O/E cells, 10 ug antibody as printed, FITC-conjugated anti-Fc secondary

- % Parent (HER3 positive) [1]: 0.12%
- % Parent (HE3 positive) [2]: 13.9%
Substance: Isotype (antibody)

- pKd (FcRn (human)): 7.78
- pKd (FcgRIIIA (F158) (human)): 5.27
- pKd [3]: 6.15
- pKd (moFcRn (mouse)): 7.89
- pKd (moFcgRIV): 6.15
Substance: LJM716 (antibody)

- % Parent (HER3 positive) [4]: 0.18%
Substance: hIgG1 Isotype (antibody)
